Test results published in patent publication US20100040754A1.

Target: hT1R2-hT1R3, human sweetness receptor (human) (UniProt Q8TE23)
Test: cell-based or functional assay

Sequence of UniProt Q8TE23 (Q8TE23 20-839, chain 1 of 2): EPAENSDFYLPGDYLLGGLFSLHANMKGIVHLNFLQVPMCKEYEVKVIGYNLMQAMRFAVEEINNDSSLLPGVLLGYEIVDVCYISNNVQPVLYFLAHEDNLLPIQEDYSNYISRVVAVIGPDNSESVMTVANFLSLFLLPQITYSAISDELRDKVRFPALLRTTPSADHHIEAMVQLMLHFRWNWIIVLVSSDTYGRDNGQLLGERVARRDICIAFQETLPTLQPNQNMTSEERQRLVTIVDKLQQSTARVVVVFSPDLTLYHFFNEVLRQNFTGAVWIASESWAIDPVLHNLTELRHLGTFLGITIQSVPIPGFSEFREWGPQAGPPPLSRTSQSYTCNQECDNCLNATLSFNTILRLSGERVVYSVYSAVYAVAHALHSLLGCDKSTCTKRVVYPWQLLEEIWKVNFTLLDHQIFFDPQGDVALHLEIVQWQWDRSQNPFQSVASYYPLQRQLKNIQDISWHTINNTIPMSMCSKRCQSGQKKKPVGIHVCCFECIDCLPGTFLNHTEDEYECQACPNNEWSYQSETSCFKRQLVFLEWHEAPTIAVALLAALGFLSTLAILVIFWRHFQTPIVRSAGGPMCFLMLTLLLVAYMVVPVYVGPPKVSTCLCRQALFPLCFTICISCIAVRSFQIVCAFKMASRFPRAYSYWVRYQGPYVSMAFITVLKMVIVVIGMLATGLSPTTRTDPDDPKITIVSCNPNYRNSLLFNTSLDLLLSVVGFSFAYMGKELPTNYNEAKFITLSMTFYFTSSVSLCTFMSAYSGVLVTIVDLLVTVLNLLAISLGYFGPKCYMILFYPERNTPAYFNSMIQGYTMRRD
Sequence of UniProt Q8TE23 (Q7RTX0 21-852, chain 2 of 2, further chain): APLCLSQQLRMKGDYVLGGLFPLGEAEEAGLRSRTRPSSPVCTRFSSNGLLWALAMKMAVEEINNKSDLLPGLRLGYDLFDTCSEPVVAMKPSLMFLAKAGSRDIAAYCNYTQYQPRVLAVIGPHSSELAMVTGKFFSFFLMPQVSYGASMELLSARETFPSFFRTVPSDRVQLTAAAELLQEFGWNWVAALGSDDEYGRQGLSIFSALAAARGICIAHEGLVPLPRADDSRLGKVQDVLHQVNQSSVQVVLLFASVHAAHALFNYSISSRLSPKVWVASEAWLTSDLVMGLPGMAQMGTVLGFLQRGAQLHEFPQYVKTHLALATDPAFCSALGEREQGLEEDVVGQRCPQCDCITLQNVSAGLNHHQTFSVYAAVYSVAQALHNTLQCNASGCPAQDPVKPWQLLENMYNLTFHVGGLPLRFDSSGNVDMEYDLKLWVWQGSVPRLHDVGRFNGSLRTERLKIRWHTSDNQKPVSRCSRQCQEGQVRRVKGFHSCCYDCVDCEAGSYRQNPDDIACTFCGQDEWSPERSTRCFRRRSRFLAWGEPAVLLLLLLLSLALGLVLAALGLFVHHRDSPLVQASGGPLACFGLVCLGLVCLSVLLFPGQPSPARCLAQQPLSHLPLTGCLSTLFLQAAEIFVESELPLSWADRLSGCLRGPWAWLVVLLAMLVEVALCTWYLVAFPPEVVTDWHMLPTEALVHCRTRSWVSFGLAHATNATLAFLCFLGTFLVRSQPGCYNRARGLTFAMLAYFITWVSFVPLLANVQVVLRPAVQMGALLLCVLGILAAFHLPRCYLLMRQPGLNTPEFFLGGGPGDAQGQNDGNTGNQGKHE

response of the cells around pH 7, against the response in the acidic region (fraction of the response): 0.5 | response of the cells around pH 8, against the response in the acidic region (fraction of the response): 0.1
Substance: neoculin (heterodimer of polypeptide NAS and polypeptide NBS) (from UniProt Q6F495 23-135; P19667 23-136) (ligand)
